Test results from paper PMC9107513.

B1: human SERCA3: OGT knockdown (protein)
parent chain: MEAAHLLPAADVLRHFSVTAEGGLSPAQVTGARERYGPNELPSEEGKSLWELVLEQFEDLLVRILLLAALVSFVLAWFEEGEETTTAFVEPLVIMLILVANAIVGVWQERNAESAIEALKEYEPEMGKVIRSDRKGVQRIRARDIVPGDIVEVAVGDKVPADLRLIEIKSTTLRVDQSILTGESVSVTKHTEAIPDPRAVNQDKKNMLFSGTNITSGKAVGVAVATGLHTELGKIRSQMAAVEPERTPLQRKLDEFGRQLSHAISVICVAVWVINIGHFADPAHGGSWLRGAVYYFKIAVALAVAAIPEGLPAVITTCLALGTRRMARKNAIVRSLPSVETLGCTSVICSDKTGTLTTNQMSVCRMFVVAEADAGSCLLHEFTISGTTYTPEGEVRQGDQPVRCGQFDGLVELATICALCNDSALDYNEAKGVYEKVGEATETALTCLVEKMNVFDTDLQALSRVERAGACNTVIKQLMRKEFTLEFSRDRKSMSVYCTPTRPHPTGQGSKMFVKGAPESVIERCSSVRVGSRTAPLTPTSREQILAKIRDWGSGSDTLRCLALATRDAPPRKEDMELDDCSKFVQYETDLTFVGCVGMLDPPRPEVAACITRCYQAGIRVVMITGDNKGTAVAICRRLGIFGDTEDVAGKAYTGREFDDLSPEQQRQACRTARCFARVEPAHKSRIVENLQSFNEITAMTGDGVNDAPALKKAEIGIAMGSGTAVAKSAAEMVLSDDNFASIVAAVEEGRAIYSNMKQFIRYLISSNVGEVVCIFLTAILGLPEALIPVQLLWVNLVTDGLPATALGFNPPDLDIMEKLPRSPREALISGWLFFRYLAIGVYVGLATVAAATWWFVYDAEGPHINFYQLRNFLKCSEDNPLFAGIDCEVFESRFPTTMALSVLVTIEMCNALNSVSENQSLLRMPPWMNPWLLVAVAMSMALHFLILLVPPLPLIFQVTPLSGRQWVVVLQISLPVILLDEALKYLSRNHMHEEMSQK
B2: SERCA3: siRNA-mediated knockdown of OGT (protein)
parent chain: MEEAHLLSAADVLRRFSVTAEGGLSLEQVTDARERYGPNELPTEEGKSLWELVVEQFEDLLVRILLLAALVSFVLAWFEEGEETTTAFVEPLVIMLILVANAIVGVWQERNAESAIEALKEYEPEMGKVIRSDRKGVQRIRARDIVPGDIVEVAVGDKVPADLRLIEIKSTTLRVDQSILTGESVSVTKHTDAIPDPRAVNQDKKNMLFSGTNIASGKALGVAVATGLQTELGKIRSQMAAVEPERTPLQRKLDEFGRQLSHAISVICVAVWVINIGHFADPAHGGSWLRGAVYYFKIAVALAVAAIPEGLPAVITTCLALGTRRMARKNAIVRSLPSVETLGCTSVICSDKTGTLTTNQMSVCRMFVVAEAEAGTCRLHEFTISGTTYTPEGEVRQGEQPVRCGQFDGLVELATICALCNDSALDYNEAKGVYEKVGEATETALTCLVEKMNVFDTDLKGLSRVERAGACNSVIKQLMRKEFTLEFSRDRKSMSVYCTPTRADPKVQGSKMFVKGAPESVIERCSSVRVGSRTAPLSTTSREHILAKIRDWGSGSDTLRCLALATRDTPPRKEDMHLDDCSRFVQYETDLTFVGCVGMLDPPRPEVAACITRCSRAGIRVVMITGDNKGTAVAICRRLGIFGDTEDVLGKAYTGREFDDLSPEQQRQACRTARCFARVEPAHKSRIVENLQSFNEITAMTGDGVNDAPALKKAEIGIAMGSGTAVAKSAAEMVLSDDNFASIVAAVEEGRAIYNNMKQFIRYLISSNVGEVVCIFLTAILGLPEALIPVQLLWVNLVTDGLPATALGFNPPDLDIMEKPPRNPREALISGWLFFRYLAIGVYVGLATVAAATWWFLYDTEGPQVTFYQLRNFLKCSEDNPLFAGIDCKVFESRFPTTMALSVLVTIEMCNALNSVSENQSLLRMPPWLNPWLLGAVVMSMALHFLILLVPPLPLIFQVTPLSGRQWGVVLQMSLPVILLDEALKYLSRNHMDEKKDLK

Legend:
[1] = western blot, FLAG-tagged wild-type SERCA3 in C2C12; settings: glycan lost; control: vector / control siRNA
[2] = western blot, endogenous SERCA3, C2C12 myotubes ± MG-132; settings: glycan lost; control: vector / control siRNA

Protein	expression_or_secretion [1]	expression_or_secretion [2]
B1	decreases	
B2		decreases
